Measured values from the Human Domainome abundance scans (Beltran et al. 2025).
± gives the uncertainty stated by the source.

B1: Tumor protein 63, residues 545 to 610; numbered along this chain, Q9H3D4 (parent)
chain: TDCSIVSFLARLGCSSCLDYFTTQGLTTIYQIEHYSMDDLASLKIPEQFRHAIWKGILDHRQLHEF

Variants of: B1
Assay: abundance fitness (aPCA) (normalised: wild type 0, dead -1); higher = more abundant; growth selection in yeast, the domain comes from the species named
Conditions: Homo sapiens

Row | Variant | abundance fitness
1 | TDCSIVSFLARLGCSSCLDYFTTQGLTTIYQIEHESMDDLASLKIPEQFRHAIWKGILDHRQLHEF | -0.706 ± 0.04
2 | TDCSIVSFLARLGCSSCLDYFTTQGLTTIYQIEHFSMDDLASLKIPEQFRHAIWKGILDHRQLHEF | -0.012 ± 0.038
3 | TDCSIVSFLARLGCSSCLDYFTTQGLTTIYQIEHCSMDDLASLKIPEQFRHAIWKGILDHRQLHEF | -0.099 ± 0.034
4 | TDCSIVSFLARLGCSSCLDYFTTQGLTTIYQIEHASMDDLASLKIPEQFRHAIWKGILDHRQLHEF | -0.131 ± 0.026
5 | TDCSIVSFLARLGCSSCLDYFTTQGLTTIYQIEHKSMDDLASLKIPEQFRHAIWKGILDHRQLHEF | -0.147 ± 0.037
6 | TDCSIVSFLARLGCSSCLDYFTTQGLTTIYQIEHQSMDDLASLKIPEQFRHAIWKGILDHRQLHEF | -0.394 ± 0.04
7 | TDCSIVSFLARLGCSSCLDYFTTQGLTTIYQIEHNSMDDLASLKIPEQFRHAIWKGILDHRQLHEF | -0.392 ± 0.032
8 | TDCSIVSFLARLGCSSCLDYFTTQGLTTIYQIEHMSMDDLASLKIPEQFRHAIWKGILDHRQLHEF | 0.03 ± 0.022
9 | TDCSIVSFLARLGCSSCLDYFTTQGLTTIYLIEHYSMDDLASLKIPEQFRHAIWKGILDHRQLHEF | -0.431 ± 0.034
10 | TDCSIVSFLARLGCSSCLDYFTTQGLTTIYEIEHYSMDDLASLKIPEQFRHAIWKGILDHRQLHEF | -0.03 ± 0.051
11 | TDCSIVSFLARLGCSSCLDYFTTQGLTTIYSIEHYSMDDLASLKIPEQFRHAIWKGILDHRQLHEF | -0.093 ± 0.021
12 | TDCSIVSFLARLGCSSCLDYFTTQGLTTIYDIEHYSMDDLASLKIPEQFRHAIWKGILDHRQLHEF | -0.019 ± 0.035
13 | TDCSIVSFLARLGCSSCLDYFTTQGLTTIYGIEHYSMDDLASLKIPEQFRHAIWKGILDHRQLHEF | -0.274 ± 0.031
14 | TDCSIVSFLARLGCSSCLDYFTTQGLTTIYYIEHYSMDDLASLKIPEQFRHAIWKGILDHRQLHEF | -0.721 ± 0.039
15 | TDCSIVSFLARLGCSSCLDYFTTQGLTTIYNIEHYSMDDLASLKIPEQFRHAIWKGILDHRQLHEF | -0.133 ± 0.02
16 | TDCSIVSFLARLGCSSCLDYFTTQGLTTIYFIEHYSMDDLASLKIPEQFRHAIWKGILDHRQLHEF | -0.695 ± 0.031
17 | TDCSIVSFLARLGCSSCLDYFTTQGLTTIYIIEHYSMDDLASLKIPEQFRHAIWKGILDHRQLHEF | -0.86 ± 0.045
18 | TDCSIVSFLARLGCSSCLDYFTTQGLTTIYKIEHYSMDDLASLKIPEQFRHAIWKGILDHRQLHEF | -0.296 ± 0.064
19 | TDCSIVSFLARLGCSSCLDYFTTQGLTTIYPIEHYSMDDLASLKIPEQFRHAIWKGILDHRQLHEF | -0.737 ± 0.044
20 | TDCSIVSFLARLGCSSCLDYFTTQGLTTIYCIEHYSMDDLASLKIPEQFRHAIWKGILDHRQLHEF | -0.159 ± 0.033
21 | TDCSIVSFLARLGCSSCLDYFTTQGLTTIYRIEHYSMDDLASLKIPEQFRHAIWKGILDHRQLHEF | -0.427 ± 0.038

Row | Variant | abundance fitness
22 | TDCSIVSFLARLGCSSCLDYFTTQGLTTIYAIEHYSMDDLASLKIPEQFRHAIWKGILDHRQLHEF | -0.108 ± 0.031
23 | TDCSIVSFLARLGCSSCLDYFTTQGLTTIYHIEHYSMDDLASLKIPEQFRHAIWKGILDHRQLHEF | -0.047 ± 0.028
24 | TDCSIVSFLARLGCSSCLDYFTTQGLTTIYWIEHYSMDDLASLKIPEQFRHAIWKGILDHRQLHEF | -0.812 ± 0.12
25 | TDCSIVSFLARLGCSSCLDYFTTQGLTTIYVIEHYSMDDLASLKIPEQFRHAIWKGILDHRQLHEF | -0.841 ± 0.051
26 | TDCSIVSFLARLGCSSCLDYFTTQGLTTIYQMEHYSMDDLASLKIPEQFRHAIWKGILDHRQLHEF | -0.169 ± 0.032
27 | TDCSIVSFLARLGCSSCLDYFTTQGLTTIYQEEHYSMDDLASLKIPEQFRHAIWKGILDHRQLHEF | -0.925 ± 0.11
28 | TDCSIVSFLARLGCSSCLDYFTTQGLTTIYQSEHYSMDDLASLKIPEQFRHAIWKGILDHRQLHEF | -1.01 ± 0.088
29 | TDCSIVSFLARLGCSSCLDYFTTQGLTTIYQNEHYSMDDLASLKIPEQFRHAIWKGILDHRQLHEF | -0.841 ± 0.1
30 | TDCSIVSFLARLGCSSCLDYFTTQGLTTIYQKEHYSMDDLASLKIPEQFRHAIWKGILDHRQLHEF | -0.9 ± 0.14
31 | TDCSIVSFLARLGCSSCLDYFTTQGLTTIYQAEHYSMDDLASLKIPEQFRHAIWKGILDHRQLHEF | -0.672 ± 0.035
32 | TDCSIVSFLARLGCSSCLDYFTTQGLTTIYQFEHYSMDDLASLKIPEQFRHAIWKGILDHRQLHEF | -0.209 ± 0.068
33 | TDCSIVSFLARLGCSSCLDYFTTQGLTTIYQLEHYSMDDLASLKIPEQFRHAIWKGILDHRQLHEF | -0.062 ± 0.026
34 | TDCSIVSFLARLGCSSCLDYFTTQGLTTIYQCEHYSMDDLASLKIPEQFRHAIWKGILDHRQLHEF | -0.249 ± 0.046
35 | TDCSIVSFLARLGCSSCLDYFTTQGLTTIYQREHYSMDDLASLKIPEQFRHAIWKGILDHRQLHEF | -1.01 ± 0.06
36 | TDCSIVSFLARLGCSSCLDYFTTQGLTTIYQGEHYSMDDLASLKIPEQFRHAIWKGILDHRQLHEF | -0.832 ± 0.037
37 | TDCSIVSFLARLGCSSCLDYFTTQGLTTIYQPEHYSMDDLASLKIPEQFRHAIWKGILDHRQLHEF | -0.953 ± 0.1
38 | TDCSIVSFLARLGCSSCLDYFTTQGLTTIYQQEHYSMDDLASLKIPEQFRHAIWKGILDHRQLHEF | -0.931 ± 0.095
39 | TDCSIVSFLARLGCSSCLDYFTTQGLTTIYQHEHYSMDDLASLKIPEQFRHAIWKGILDHRQLHEF | -0.876 ± 0.24
40 | TDCSIVSFLARLGCSSCLDYFTTQGLTTIYQTEHYSMDDLASLKIPEQFRHAIWKGILDHRQLHEF | -0.55 ± 0.044
41 | TDCSIVSFLARLGCSSCLDYFTTQGLTTIYQWEHYSMDDLASLKIPEQFRHAIWKGILDHRQLHEF | -0.898 ± 0.051
